Experimental data published in US20240262917A1, “ANTIBODIES AGAINST ALK AND METHODS OF USE THEREOF” (Dana-Farber Cancer Institute, Inc., priority 2021, published 2024).

Key:
Format in all cases: binding
[1] = target: T1, ALK extracellular fragment (Homo sapiens, UniProt Q9UM73); assay: Sandwich ELISA of shed ALK ECD in patient sera; settings: sera of patients with ALK-expressing neuroblastoma
T1 construct: conditioned media containing the shed ALK (ALK 1-654) ECD fragment; from tissue; host or cells: serum of neuroblastoma patients
T1 sequence (Q9UM73 19-654): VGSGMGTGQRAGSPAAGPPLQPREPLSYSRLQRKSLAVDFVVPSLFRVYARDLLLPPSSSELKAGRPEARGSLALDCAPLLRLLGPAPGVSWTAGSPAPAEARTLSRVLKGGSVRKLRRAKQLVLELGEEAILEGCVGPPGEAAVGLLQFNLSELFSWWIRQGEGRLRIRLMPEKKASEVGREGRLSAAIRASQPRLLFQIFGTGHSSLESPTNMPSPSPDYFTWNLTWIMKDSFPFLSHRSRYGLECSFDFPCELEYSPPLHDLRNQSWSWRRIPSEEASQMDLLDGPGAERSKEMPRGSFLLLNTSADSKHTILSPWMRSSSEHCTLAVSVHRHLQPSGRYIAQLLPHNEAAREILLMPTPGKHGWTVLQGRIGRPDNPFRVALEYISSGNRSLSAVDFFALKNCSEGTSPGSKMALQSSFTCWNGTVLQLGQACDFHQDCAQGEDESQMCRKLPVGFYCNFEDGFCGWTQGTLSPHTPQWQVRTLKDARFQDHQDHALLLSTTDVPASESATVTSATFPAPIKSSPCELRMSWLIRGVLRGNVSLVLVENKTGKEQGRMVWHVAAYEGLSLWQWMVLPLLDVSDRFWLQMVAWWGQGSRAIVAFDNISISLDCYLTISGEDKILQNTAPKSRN
Source text: Detection of the purified ALK-ECD protein using 8G7 (detection) and 7F7 (capture) anti-ALK antibodies by sandwich ELISA. (A) Standard curve showing the gradual increase in signal with increasing concentrations of the ALK-ECD protein in the media of NGP cells that express cleaved ALK. Quantification is shown below. (B) ELISA of the shed ALK ECD protein in sera from patients with neuroblastoma. Ample diluent buffer was used to dilute the serum samples, Media represents Dulbecco's Modified Eagle media in which human embryonic kidney 293T cells were grown, 293T media, conditioned media from 293T cells; ALK ECD 293T media, media collected from 293T cells in which the ALK-ECD-mFc protein was overexpressed.
We developed a sandwich ELISA technique where two ALK antibodies (for example, 5H3 or 7F7) can be used to capture the ALK extracellular fragment (antigen), and another antibody, such as the 8G7 antibody, can be used to detect the captured ALK extracellular fragment-5H3 or 7F7 complex. The different epitope binding sites of these antibodies on the ALK extracellular fragment protein allow for the development of the sandwich ELISA technique for the detection of the cleaved or shed ALK extracellular fragment in patient serum samples (FIG. 18). […]

ALK receptor [2] = assay: Immunocytochemistry and immunohistochemistry staining of ALK; settings: 293T and NB9464 cells expressing WT ALK; tumor tissue from ALK F1174L/MYCN transgenic mouse model
ALK receptor, sequence (Q9UM73 19-1038 limits assumed): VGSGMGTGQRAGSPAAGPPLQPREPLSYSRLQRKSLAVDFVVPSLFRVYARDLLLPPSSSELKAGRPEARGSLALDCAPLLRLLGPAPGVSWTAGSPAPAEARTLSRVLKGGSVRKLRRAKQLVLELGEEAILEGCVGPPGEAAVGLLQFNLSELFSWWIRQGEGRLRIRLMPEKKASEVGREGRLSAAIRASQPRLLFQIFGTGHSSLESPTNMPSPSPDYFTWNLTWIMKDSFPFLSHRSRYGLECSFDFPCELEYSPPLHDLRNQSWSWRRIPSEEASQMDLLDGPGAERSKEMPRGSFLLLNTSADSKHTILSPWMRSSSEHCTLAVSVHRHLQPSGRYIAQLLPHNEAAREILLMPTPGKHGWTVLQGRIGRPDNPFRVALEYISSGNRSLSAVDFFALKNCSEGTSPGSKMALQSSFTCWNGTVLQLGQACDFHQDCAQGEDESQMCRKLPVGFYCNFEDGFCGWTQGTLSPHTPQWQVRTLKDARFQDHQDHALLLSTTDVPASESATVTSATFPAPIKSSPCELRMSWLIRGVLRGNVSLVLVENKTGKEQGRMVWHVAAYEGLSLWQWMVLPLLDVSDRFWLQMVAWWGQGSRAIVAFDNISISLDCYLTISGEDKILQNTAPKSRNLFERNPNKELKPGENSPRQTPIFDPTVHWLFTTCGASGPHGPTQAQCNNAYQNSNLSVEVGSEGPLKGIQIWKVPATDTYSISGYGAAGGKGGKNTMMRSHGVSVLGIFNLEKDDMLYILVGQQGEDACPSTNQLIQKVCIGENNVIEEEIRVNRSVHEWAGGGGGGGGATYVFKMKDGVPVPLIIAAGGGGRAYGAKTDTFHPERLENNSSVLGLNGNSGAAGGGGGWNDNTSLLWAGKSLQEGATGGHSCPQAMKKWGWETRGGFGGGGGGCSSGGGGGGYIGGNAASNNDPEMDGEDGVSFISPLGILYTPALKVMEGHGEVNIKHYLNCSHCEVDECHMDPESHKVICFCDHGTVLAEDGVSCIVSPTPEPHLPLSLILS
Source text: (A). Immunocytochemistry staining with the 8G7 antibody of 293T and NB9464 (mouse neuroblastoma cells derived from Th-MycN transgenic tumor model; Weiss et al, 1997) cells expressing a control vector or WT ALK. 5×10^6 cells were fixed in 10% formalin and images captured using a Zeiss AXIO Imager Z1 fluorescence microscope following staining. (B) Immunohistochemistry of tumor tissue from the ALK F1174L/MYCN transgenic mouse model using the 8G7 antibody.

ALK receptor [3] = target: T2, ALK receptor (Homo sapiens, UniProt Q9UM73, F1174L); assay: Immunofluorescence detection of ALK
T2 construct: expressed in transfected cells; host or cells: SHEP neuroblastoma cells
T2 sequence (Q9UM73 19-1620 F1174L): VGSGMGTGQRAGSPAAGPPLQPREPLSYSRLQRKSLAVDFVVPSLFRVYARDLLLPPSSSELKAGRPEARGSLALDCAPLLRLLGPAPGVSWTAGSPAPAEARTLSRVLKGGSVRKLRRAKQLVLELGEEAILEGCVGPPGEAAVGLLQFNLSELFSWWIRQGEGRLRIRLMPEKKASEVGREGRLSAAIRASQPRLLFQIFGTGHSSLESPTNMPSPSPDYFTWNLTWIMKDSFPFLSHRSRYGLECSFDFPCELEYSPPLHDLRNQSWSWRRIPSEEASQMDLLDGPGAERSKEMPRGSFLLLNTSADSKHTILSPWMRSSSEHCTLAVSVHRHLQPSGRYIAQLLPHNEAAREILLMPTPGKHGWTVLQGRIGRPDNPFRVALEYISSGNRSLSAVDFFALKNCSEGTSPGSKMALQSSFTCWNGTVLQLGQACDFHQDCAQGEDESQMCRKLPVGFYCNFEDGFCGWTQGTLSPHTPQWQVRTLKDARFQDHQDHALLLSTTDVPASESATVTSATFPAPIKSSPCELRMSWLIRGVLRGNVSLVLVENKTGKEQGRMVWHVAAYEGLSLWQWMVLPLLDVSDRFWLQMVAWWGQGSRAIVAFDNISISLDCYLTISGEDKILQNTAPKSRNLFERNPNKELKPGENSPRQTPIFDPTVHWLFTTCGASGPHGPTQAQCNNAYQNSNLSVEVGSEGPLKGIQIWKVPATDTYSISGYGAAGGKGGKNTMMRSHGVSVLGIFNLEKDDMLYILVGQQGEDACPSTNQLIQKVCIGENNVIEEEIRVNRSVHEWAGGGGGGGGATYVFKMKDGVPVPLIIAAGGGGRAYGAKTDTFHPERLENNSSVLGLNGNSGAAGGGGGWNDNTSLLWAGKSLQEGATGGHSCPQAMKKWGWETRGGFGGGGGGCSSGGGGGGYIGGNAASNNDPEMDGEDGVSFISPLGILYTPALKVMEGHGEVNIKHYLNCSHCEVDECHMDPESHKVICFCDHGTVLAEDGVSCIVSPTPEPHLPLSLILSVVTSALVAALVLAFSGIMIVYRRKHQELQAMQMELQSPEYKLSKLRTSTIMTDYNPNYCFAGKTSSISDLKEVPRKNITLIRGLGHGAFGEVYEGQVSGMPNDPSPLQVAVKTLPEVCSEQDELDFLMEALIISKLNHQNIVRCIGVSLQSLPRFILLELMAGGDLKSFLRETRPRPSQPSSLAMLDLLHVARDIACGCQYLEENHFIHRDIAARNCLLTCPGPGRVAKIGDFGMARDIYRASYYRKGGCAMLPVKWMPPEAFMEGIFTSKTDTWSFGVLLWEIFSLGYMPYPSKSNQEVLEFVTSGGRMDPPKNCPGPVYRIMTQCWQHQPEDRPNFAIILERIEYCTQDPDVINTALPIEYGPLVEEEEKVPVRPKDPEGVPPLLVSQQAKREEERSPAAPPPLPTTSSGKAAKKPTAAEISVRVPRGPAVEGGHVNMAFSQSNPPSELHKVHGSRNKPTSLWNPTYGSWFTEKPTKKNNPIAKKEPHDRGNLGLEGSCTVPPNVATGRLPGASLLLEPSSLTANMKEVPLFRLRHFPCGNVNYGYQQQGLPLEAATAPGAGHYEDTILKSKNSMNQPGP
Source text: (A) IF images (40×) of NGP neuroblastoma cells expressing wild type ALK stained with the 8G7 antibody. A 1:100 antibody dilution was used. […] The last plasmid serves as a negative control similar to NIH3T3-MSCV cells in which the vector only is expressed.
Immunofluorescence detection of ALK with 8G7 and 7F7 antibodies in SHEP NB cells engineered to express the ALKF1174L mutation. Staining with the M13 antibody obtained from the Vigny laboratory under an MTA is shown for comparison (Moog-Lutz et al, 2005). Cells expressing the vector only (SHEP) were used as controls. Cells were stained with a 1:100 dilution of antibody. Images were captured at 40× with a Zeiss AXIO Imager Z1 fluorescence microscope.
Cells (0.5×10^6 per well) were seeded into six-well plates and grown on glass coverslips for 24 hr. before fixation in 4% paraformaldehyde in PBS for 15 min at room temperature (RT), washed with PBS, permeabilized in 0.1% Triton X-100, and blocked with PBS containing 0.05% Tween-20 and 5% BSA for 1 hr. to block nonspecific binding. Then, cells were incubated with the 8G7 antibody (1:100) overnight at 4° C. After washing with PBS, cells were incubated with AlexaFluor 568-conjugated secondary antibody for 1 hr. at 25° C. Images were collected on a Zeiss AXIO Imager Z1 fluorescence microscope. […] After 24 hours, cells were washed once in PBS, fixed in 4% paraformaldehyde in PBS, washed, permeabilized in 0.1% Triton X-100, and blocked in PBS containing 10% horse serum. […] The next day, cells were washed, incubated in goat anti-rabbit IgG secondary antibody (1:1000) for 1 hr. washed, and incubated in Streptavidin-TexasRed (1:1000) for 1 hr. Cover slips were mounted onto slides using mounting medium containing DAPI. Images were collected on a Zeiss AXIO Imager Z1 fluorescence microscope.

ALK = ALK (Homo sapiens, UniProt Q9UM73); assay: Screening and subcloning of hybridomas (ELISA, FCM, functional assays); parameters: The human ALK extracellular domain (19-682 aa) fused to the mouse Fc gene; made in house; host or cells: 293T cells; settings: after subcloning by limiting dilution
ALK, sequence (Q9UM73 19-682): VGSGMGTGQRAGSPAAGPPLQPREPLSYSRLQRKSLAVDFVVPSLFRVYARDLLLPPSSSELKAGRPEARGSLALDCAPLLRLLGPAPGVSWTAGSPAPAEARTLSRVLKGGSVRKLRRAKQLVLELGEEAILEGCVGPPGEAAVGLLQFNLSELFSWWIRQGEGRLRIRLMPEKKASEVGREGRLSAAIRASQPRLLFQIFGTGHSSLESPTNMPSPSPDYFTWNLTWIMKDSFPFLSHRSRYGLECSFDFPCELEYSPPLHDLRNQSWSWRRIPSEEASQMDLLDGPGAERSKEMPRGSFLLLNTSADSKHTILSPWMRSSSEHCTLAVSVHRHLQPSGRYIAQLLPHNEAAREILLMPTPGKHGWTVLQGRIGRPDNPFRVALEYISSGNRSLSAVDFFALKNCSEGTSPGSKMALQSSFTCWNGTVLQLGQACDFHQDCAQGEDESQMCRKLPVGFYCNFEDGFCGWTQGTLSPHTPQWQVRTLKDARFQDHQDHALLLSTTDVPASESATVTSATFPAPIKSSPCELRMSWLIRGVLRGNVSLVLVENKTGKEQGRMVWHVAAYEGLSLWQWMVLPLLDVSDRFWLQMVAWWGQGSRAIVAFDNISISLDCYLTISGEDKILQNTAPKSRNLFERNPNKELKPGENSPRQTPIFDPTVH
Protocol: HAT-selected fused cells were distributed in 96 well plates and the hybridoma supernatants were subjected to several rounds of screening. Initial screening was performed using ELISA against human Fc to test antigen binding with the ALK ECD-human Fc fusion protein. […] These were rescreened by FACS against Ba/F3 and neuroblastoma (NB) cells expressing ALK. From this screen, 22 positive hybridoma supernatants were tested in an antigen-binding capture ELISA assay and 11 were subsequently selected for further analysis. (A) Binding of hybridoma supernatants using an antigen-binding capture assay. The plate was coated with goat-anti-mouse IgG Fc, incubated with hybridoma supernatants, followed by ALK-HRP and visualized using an HRP substrate. (B) Binding of selected hybridoma supernatants to a human Fc antibody using ELISA screening. Plates were coated with the ALK ECD-human Fc fusion protein (ALK-hFc) together with an irrelevant hFc protein and visualized using an anti-mouse kappa light chain antibody. Only the supernatants with the highest binding are shown.
Supernatants from individual clones were then screened by ELISA and FACS analysis for ALK binding. Shown here is the viability of NGP neuroblastoma cells (expressing ALK) in the presence of anti-mouse IgG antibody in hybridoma clone supernatants. […]

- recognition of ALK lacking the majority of the ECD in immunofluorescence (ALK receptor [3]; NIH3T3-ALK-del MAM2 to 654 aa, negative control): not recognized
- ALK specificity of the clone's monoclonal antibody (ALK): high ALK specificity
B1: 8G7: murine monoclonal IgG1 anti-ALK antibody to the N-terminal ECD of human ALK; VH SEQ ID NO: 3, VL SEQ ID NO: 4 (antibody, V domains shown)
VH: QVQLQQSGAELVRPGASVTLSCKASGYTFTDYEMHWVKQTPVHGLEWIGAIDPETGGSAYNQKFKAKAILTADRSSSTAYMELRSLTSEDSAVYYCTRTRYYGSSPAMDYWGQGTSVTVSS
VL: DIQMTQTTSSLSASLGDRVTISCSASQGIGNYLNWYQQKPDGTVKLLIYYTSSLHSGVPSRFSGSGSGTDYSLTISNLEPEDIATYYCQQYSKLPYTFGGGTKLEIK
- recognition of circulating ALK extracellular fragment in sera [1]: recognize the circulating ALK extracellular fragment in the sera of patients with ALK-expressing neuroblastoma
- binding in immunocytochemistry and immunohistochemistry (ALK receptor [2]): showed binding in engineered cells and transgenic mice tumors
- binding to the ALK receptor in immunofluorescence (ALK receptor [3]; SHEP NB cells engineered to express the ALKF1174L mutation, 1:100 dilution of antibody): bind to the ALK receptor in immunofluorescence assays
- recognition of ALK at the cell surface (ALK receptor [3]; immunofluorescence, immunocytochemistry and immunohistochemistry): recognize ALK at the cell surface by immunofluorescence, immunocytochemistry and immunohistochemistry
